Test results from publication PMC6237735.

Legend:
[1] = tested on: Pa-30S small ribosomal subunit;Pa-aIF1* unlabeled (Pyrococcus abyssi;Pyrococcus abyssi); assay: competition; settings: Kd of unlabeled aIF1* for 30S:mRNA; 180 nM mRNA; Anisotropy: 10 mM HEPES pH 7.5, 200 mM NaCl, 10 mM Mg acetate, 0.1% Tween 20, 51 C; toeprinting: 10 mM HEPES pH 7.5, 158 mM NaCl, 20 mM NH4Cl, 13.5 mM Mg …
[2] = tested on: Pa-30S small ribosomal subunit;Pa-aIF1*-Y32A (Pyrococcus abyssi;Pyrococcus abyssi); assay: fluorescence anisotropy; settings: Anisotropy: 10 mM HEPES pH 7.5, 200 mM NaCl, 10 mM Mg acetate, 0.1% Tween 20, 51 C; toeprinting: 10 mM HEPES pH 7.5, 158 mM NaCl, 20 mM NH4Cl, 13.5 mM Mg …
[3] = tested on: Pa-30S small ribosomal subunit;Pa-aIF1*-R31A (Pyrococcus abyssi;Pyrococcus abyssi); assay: fluorescence anisotropy; settings: Anisotropy: 10 mM HEPES pH 7.5, 200 mM NaCl, 10 mM Mg acetate, 0.1% Tween 20, 51 C; toeprinting: 10 mM HEPES pH 7.5, 158 mM NaCl, 20 mM NH4Cl, 13.5 mM Mg …
[4] = tested on: Pa-30S small ribosomal subunit;Pa-aIF1* (MDCC-coumarin labeled) (Pyrococcus abyssi;Pyrococcus abyssi); assay: fluorescence anisotropy; settings: Kd of aIF1* for 30S:mRNA; best fit 0.2 nM; Anisotropy: 10 mM HEPES pH 7.5, 200 mM NaCl, 10 mM Mg acetate, 0.1% Tween 20, 51 C; toeprinting: 10 mM HEPES pH 7.5, 158 mM NaCl, 20 mM NH4Cl, 13.5 mM Mg …
[5] = tested on: Pa-30S small ribosomal subunit;Pa-aIF1*-K34A (Pyrococcus abyssi;Pyrococcus abyssi); assay: fluorescence anisotropy; settings: Anisotropy: 10 mM HEPES pH 7.5, 200 mM NaCl, 10 mM Mg acetate, 0.1% Tween 20, 51 C; toeprinting: 10 mM HEPES pH 7.5, 158 mM NaCl, 20 mM NH4Cl, 13.5 mM Mg …
[6] = molecular target: Pyrococcus abyssi small ribosomal subunit (Pa-30S) (Pyrococcus abyssi); assay: fluorescence polarisation; fluorescence anisotropy of coumarin-labeled aIF1* (50 nM) titrated with purified Pa-30S, no mRNA; 51°C; 10 mM HEPES pH 7.5, 200 mM NaCl, 10 mM MgAc, 0.1% Tween 20; quadratic fit
[7] = molecular target: Pyrococcus abyssi small ribosomal subunit (Pa-30S) (Pyrococcus abyssi); assay: fluorescence polarisation; fluorescence anisotropy of coumarin-labeled aIF1 (50 nM for the variants; 13 nM for Pa-aIF1*) titrated with Pa-30S:mRNA complex (30S with a 2-fold molar excess of mRNA); 51°C; 10 mM HEPES pH 7.5, 200 mM NaCl, 10 mM MgAc, 0.1% Tween 20; quadratic fit
[8] = molecular target: Pyrococcus abyssi small ribosomal subunit (Pa-30S) (Pyrococcus abyssi)
[9] = molecular target: Pyrococcus abyssi small ribosomal subunit (Pa-30S) (Pyrococcus abyssi); assay: fluorescence polarisation; fluorescence anisotropy of coumarin-labeled aIF1 (50 nM for the variants; 13 nM for Pa-aIF1*) titrated with Pa-30S:mRNA complex (30S with a 2-fold molar excess of mRNA); 51°C; 10 mM HEPES pH 7.5, 200 mM NaCl, 10 mM MgAc, 0.1% Tween 20; quadratic fit; remark: listed apart in the source
[10] = tested on: Pa-aIF1* unlabeled (Pyrococcus abyssi); assay: competition; settings: chase of labeled aIF1* from 30S; Anisotropy: 10 mM HEPES pH 7.5, 200 mM NaCl, 10 mM Mg acetate, 0.1% Tween 20, 51 C; toeprinting: 10 mM HEPES pH 7.5, 158 mM NaCl, 20 mM NH4Cl, 13.5 mM Mg …
[11] = tested on: Pa-aIF1*-K34A (Pyrococcus abyssi); assay: fluorescence anisotropy; settings: Anisotropy: 10 mM HEPES pH 7.5, 200 mM NaCl, 10 mM Mg acetate, 0.1% Tween 20, 51 C; toeprinting: 10 mM HEPES pH 7.5, 158 mM NaCl, 20 mM NH4Cl, 13.5 mM Mg …
[12] = tested on: Pa-aIF1* (MDCC-coumarin labeled) (Pyrococcus abyssi); assay: fluorescence anisotropy; settings: aIF1* binding to 30S, no mRNA; Anisotropy: 10 mM HEPES pH 7.5, 200 mM NaCl, 10 mM Mg acetate, 0.1% Tween 20, 51 C; toeprinting: 10 mM HEPES pH 7.5, 158 mM NaCl, 20 mM NH4Cl, 13.5 mM Mg …
[13] = tested on: Pa-aIF1*-R31A (Pyrococcus abyssi); assay: fluorescence anisotropy; settings: Anisotropy: 10 mM HEPES pH 7.5, 200 mM NaCl, 10 mM Mg acetate, 0.1% Tween 20, 51 C; toeprinting: 10 mM HEPES pH 7.5, 158 mM NaCl, 20 mM NH4Cl, 13.5 mM Mg …
[14] = tested on: Pa-aIF1*-Y32A (Pyrococcus abyssi); assay: fluorescence anisotropy; settings: Anisotropy: 10 mM HEPES pH 7.5, 200 mM NaCl, 10 mM Mg acetate, 0.1% Tween 20, 51 C; toeprinting: 10 mM HEPES pH 7.5, 158 mM NaCl, 20 mM NH4Cl, 13.5 mM Mg …
[15] = tested on: Pa-30S small ribosomal subunit;Pa-aIF1 (Pyrococcus abyssi;Pyrococcus abyssi); assay: fluorescence anisotropy; settings: preformed 30S:aIF1; mRNA 0.5 nM; Anisotropy: 10 mM HEPES pH 7.5, 200 mM NaCl, 10 mM Mg acetate, 0.1% Tween 20, 51 C; toeprinting: 10 mM HEPES pH 7.5, 158 mM NaCl, 20 mM NH4Cl, 13.5 mM Mg …
[16] = tested on: Pa-30S small ribosomal subunit (Pyrococcus abyssi); assay: fluorescence anisotropy; settings: 30S alone; mRNA 8 nM; Anisotropy: 10 mM HEPES pH 7.5, 200 mM NaCl, 10 mM Mg acetate, 0.1% Tween 20, 51 C; toeprinting: 10 mM HEPES pH 7.5, 158 mM NaCl, 20 mM NH4Cl, 13.5 mM Mg …

For “AUUUGGAGGUGAUUUAAAUGCCAAAG [wt-aEF1A mRNA 26-mer, unlabeled]”, the Kd [1] was 0.4 nM, the Kd [2] was 22 nM and the Kd [3] was under 3 nM. For the same substance, the Kd [4] was under 1 nM and the Kd [5] was 45 nM.
Pa-aIF1*-R31A (natural protein) was tested, and the Kd [6] was 84 nM and the Kd [7] was under 3 nM.
Pa-aIF1*-Y32A (natural protein) gave a Kd [6] of 20 nM and a Kd [7] of 22 nM.
Pa-aIF1-K34A (natural protein) gave a factor concentration needed for a toeprinting pattern of 30S:mRNA:aIF1 like that of wt-Pa-aIF1 [8] of 8 fold.
“Pa-aIF1* (Pyrococcus abyssi aIF1 K45C-C62S labeled with coumarin) (natural protein)” showed a Kd [9] of 0.2 nM, a Kd [6] of 12 nM and a Kd [7] of under 1 nM.
“Pa-30S (16S rRNA in small ribosomal subunit)” gave a Kd [10] of 40 nM, a Kd [11] of over 300 nM and a Kd [12] of 12 nM. For the same substance, the Kd [13] was 84 nM and the Kd [14] was 20 nM.
Work on “AUUUGGAGGUGAUUUAAAUGCCAAAG [wt-aEF1A-mRNA 26-mer]” yielded a Kd [15] of 0.07 nM and a Kd [16] of 3.3 nM.
Work on Pa-aIF1*-K34A (natural protein) yielded a Kd [6] of over 300 nM and a Kd [7] of 45 nM.
